Measurements published in patent US20060111296A1 (DYAX, published 2006).

Biological target: T1, plasmin (human, UniProt P00747 97-810, limits assumed)
T1 construct: Active plasmin is a two-chain, disulfide-linked form of plasminogen; also called human plasmin
Assay: inhibition constant for human plasmin; method not described

T1 sequence (P00747 97-810 limits assumed): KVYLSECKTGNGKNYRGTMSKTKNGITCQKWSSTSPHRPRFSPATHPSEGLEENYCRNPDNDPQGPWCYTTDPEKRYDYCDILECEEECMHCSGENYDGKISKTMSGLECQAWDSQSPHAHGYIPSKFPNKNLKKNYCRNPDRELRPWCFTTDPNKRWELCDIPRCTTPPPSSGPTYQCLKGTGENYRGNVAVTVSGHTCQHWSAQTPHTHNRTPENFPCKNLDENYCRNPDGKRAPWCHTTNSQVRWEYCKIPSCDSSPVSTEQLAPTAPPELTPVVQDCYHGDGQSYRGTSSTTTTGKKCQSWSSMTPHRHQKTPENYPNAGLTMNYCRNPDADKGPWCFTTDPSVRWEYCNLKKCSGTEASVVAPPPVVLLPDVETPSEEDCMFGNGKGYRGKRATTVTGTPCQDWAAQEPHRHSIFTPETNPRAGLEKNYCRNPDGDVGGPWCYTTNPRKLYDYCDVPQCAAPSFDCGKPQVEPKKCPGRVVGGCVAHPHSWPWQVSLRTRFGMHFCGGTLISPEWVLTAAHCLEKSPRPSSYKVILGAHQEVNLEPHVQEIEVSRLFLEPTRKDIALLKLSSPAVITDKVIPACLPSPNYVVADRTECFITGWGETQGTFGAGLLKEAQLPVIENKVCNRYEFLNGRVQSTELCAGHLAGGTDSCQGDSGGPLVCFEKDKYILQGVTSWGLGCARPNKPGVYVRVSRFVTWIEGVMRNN

Ki: 0.088 nM
B1: DX-1000 (designed binder)
chain: MHSFCAFKAETGPCRARFDRWFFNIFTRQCEEFIYGGCEGNQNRFESLEECKKMCTRD
notes: Engineered Kunitz domain on the human LACI-K1 framework; also called DX-1000 (unmodified)
